Assay [1] addresses soluble 2004 H5 HA (Influenza A virus (H5N1, 2004)). Kind of assay: ELISA, supernate.
Assay [2] addresses recombinant soluble trimeric 2009 H1 HA (A/California/04/2009, wild type) (Influenza A virus A/California/04/2009 (H1N1)). Kind of assay: ELISA, supernate.
In assay [3] the target is soluble 1999 H1 HA (seasonal 1999 H1N1) (Influenza A virus (H1N1, 1999)). Nature of the assay: ELISA, supernate. For orientation: ELISA stands for enzyme-linked immunosorbent assay.
For assay [4], the target named is 1997 H9N2 HA (Influenza A virus (H9N2, 1997)). Nature of the assay: ELISA, supernate.
Assay [5] deals with 1997 H6N1 HA (Influenza A virus (H6N1, 1997)). Kind of assay: ELISA, supernate.
The target of assay [6] is recombinant soluble 1957 H2 HA (A/Japan/305+/1957) (Influenza A virus A/Japan/305+/1957 (H2N2)). Kind of assay: ELISA, supernate.
Assay [7] addresses soluble 2004 H5 HA (Influenza A virus (H5N1, 2004)). Nature of the assay: ELISA, supernate. The source holds these as a separate data set.
The target in assay [8] is recombinant soluble trimeric 2009 H1 HA (A/California/04/2009, wild type) (Influenza A virus A/California/04/2009 (H1N1)). Kind of assay: ELISA, supernate. The source holds these as a separate data set.
Assay [9] concerns the target soluble 1999 H1 HA (seasonal 1999 H1N1) (Influenza A virus (H1N1, 1999)). Nature of the assay: ELISA, supernate. The source holds these as a separate data set.
Assay [10] has as its target recombinant soluble 1957 H2 HA (A/Japan/305+/1957) (Influenza A virus A/Japan/305+/1957 (H2N2)). Kind of assay: ELISA, supernate. This is another data set of the same source.
In assay [11] the target is recombinant soluble trimeric 1918 H1 HA (A/South Carolina/1/1918, wild type) (Influenza A virus A/South Carolina/1/1918 (H1N1)) (UniProt Q9WFX3). Nature of the assay: ELISA, supernate.
The target in assay [12] is recombinant soluble 1968 H3 HA (A/Aichi/2/1968) (Influenza A virus A/Aichi/2/1968 (H3N2)) (UniProt P03437). Nature of the assay: ELISA, supernate.
In assay [13] the target is recombinant soluble trimeric 1918 H1 HA (A/South Carolina/1/1918, wild type) (Influenza A virus A/South Carolina/1/1918 (H1N1)) (UniProt Q9WFX3). Kind of assay: ELISA, supernate. The source holds these as a separate data set.
For assay [14], the target named is recombinant soluble 1968 H3 HA (A/Aichi/2/1968) (Influenza A virus A/Aichi/2/1968 (H3N2)) (UniProt P03437). Nature of the assay: ELISA, supernate. This is another data set of the same source.
Assay [15] addresses HA of A/New Caledonia/20/1999 (H1N1) virus (Influenza A virus (H1N1)). Kind of assay: cell-based or functional assay.
The target in assay [16] is HA of A/swine/Iowa/15/1930 (H1N1) virus (Influenza A virus (H1N1)). Kind of assay: cell-based or functional assay.
Assay [17] deals with HA of A/USSR/92/1977 (H1N1) virus (Influenza A virus (H1N1)). Nature of the assay: cell-based or functional assay.
Assay [18] addresses HA of A/Weiss/1943 (H1N1) virus (Influenza A virus (H1N1)). Kind of assay: cell-based or functional assay.
Assay [19] deals with HA of A/Brisbane/59/2007 (H1N1) virus (Influenza A virus (H1N1)). Nature of the assay: cell-based or functional assay.
For assay [20], the target named is HA of A/New Jersey/11/1976 (H1N1) virus (Influenza A virus (H1N1)). Kind of assay: cell-based or functional assay.
Assay [21] has as its target HA of A/L3/1947 (H1N1) virus (Influenza A virus (H1N1)). Kind of assay: cell-based or functional assay.
Assay [22] addresses HA of A/South Carolina/1/1918 (H1N1), wild type, on VLP (Influenza A virus A/South Carolina/1/1918 (H1N1)) (UniProt Q9WFX3). Kind of assay: cell-based or functional assay.
The target of assay [23] is HA of A/California/04/2009 (H1N1) virus (Influenza A virus (H1N1)). Nature of the assay: cell-based or functional assay.
Assay [24] concerns the target soluble 2004 H5 HA (Influenza A virus (H5N1, 2004)). Kind of assay: ELISA, recombinant mAb.
Assay [25] addresses recombinant soluble trimeric 2009 H1 HA (A/California/04/2009, wild type) (Influenza A virus A/California/04/2009 (H1N1)). Nature of the assay: ELISA, recombinant mAb.
For assay [26], the target named is soluble 1999 H1 HA (seasonal 1999 H1N1) (Influenza A virus (H1N1, 1999)). Kind of assay: ELISA, recombinant mAb.
In assay [27] the target is 1997 H9N2 HA (Influenza A virus (H9N2, 1997)). Nature of the assay: ELISA, recombinant mAb.
The target in assay [28] is 1997 H6N1 HA (Influenza A virus (H6N1, 1997)). Nature of the assay: ELISA, recombinant mAb.
The target in assay [29] is recombinant soluble 1957 H2 HA (A/Japan/305+/1957) (Influenza A virus A/Japan/305+/1957 (H2N2)). Nature of the assay: ELISA, recombinant mAb.
Assay [30] has as its target soluble 2004 H5 HA (Influenza A virus (H5N1, 2004)). Kind of assay: ELISA, recombinant mAb. The source holds these as a separate data set.
For assay [31], the target named is recombinant soluble trimeric 2009 H1 HA (A/California/04/2009, wild type) (Influenza A virus A/California/04/2009 (H1N1)). Nature of the assay: ELISA, recombinant mAb. The source holds these as a separate data set.
The target of assay [32] is soluble 1999 H1 HA (seasonal 1999 H1N1) (Influenza A virus (H1N1, 1999)). Kind of assay: ELISA, recombinant mAb. This is another data set of the same source.
The target of assay [33] is recombinant soluble 1957 H2 HA (A/Japan/305+/1957) (Influenza A virus A/Japan/305+/1957 (H2N2)). Nature of the assay: ELISA, recombinant mAb. The source holds these as a separate data set.

Where two headings read alike, the source gives them in different places.

B1: mAb 6J24 (antibody, V domains shown)
VH: EVQLVESGGGLVQPGRSLRLSCVGSGFNFDGYAMQWVRQVPGKGLEWVSGISWHSDSTGYADSVRGRFTISRDNAKNSLYLQMDSLRPEDTAFYYCGKSIGHVGGSYRHPIDYWGQGTLVTVS
VL: DIQLTQSPSSLSASVGDRVTITCRASQGITDYLAWYQQKPGTIPKLLIYAASTLQSGVPSRFSGGGYGTDFTLTISSLQPEDVATYYCQKYNSAPLTFGGGTKVEIKR
Consider B1, for which the OD in [1] was 0.182 OD; in [2] it was 0.102 OD; in assay [3], 0.083 OD; in assay [4] it was 0.075 OD; in assay [5], 0.163 OD; in assay [6], 0.097 OD. The OD in assay [7] was determined as 0.379 OD; in [8] it was 0.981 OD; in assay [9], 0.183 OD; in assay [10] it was 0.219 OD.

B2: mAb 5I17 (antibody, V domains shown)
VH: EVQLVESGGGVVQPGRSLRLSCAASGFSFSNYAMHWVRQAPGKGLEWVALISFDGSDKYYADSVKGRFTMSRDNSKNTLYLQMNSLRAEDTAVYYCARDEPYCGGDCFAFDVWGQGTMVTVS
VL: DIQLTQSPSSLSASAGDRVSMTCRASQIISSSLNWYQQKPGKAPKLLIYAASNLQSGVPSRFSGSGSGTDFTLTISSLQPEDFATYYCQQSYSTPPELTFGGGTKVDIKR
B2: the OD in assay [1] is 1.17 OD; in assay [2] it was 0.566 OD; in [3] it was 1.19 OD; in assay [4] it was 1.98 OD; in assay [5] it was 0.11 OD; in assay [11] it was 0.522 OD. Moreover, the OD amounted to 0.156 OD in [12]; 1.38 OD in [6]; 1.55 OD in assay [7]; 0.668 OD in [8]; 1.93 OD in [9]; 0.495 OD in assay [13]. Further, the OD in assay [14] came out at 0.267 OD; in [10], 0.85 OD.

B3: mAb 6D9 (antibody, V domains shown)
VH: EVQLVESGGGLVQPGGSLRLSCAASGFIFESYWMTWVRQAPGKGLEWVANIKQDGSEKNYVDSVKGRFTISRDNAKTSLYLQMNSLRAEDTAMYYCARSGSNWDTYYYYYGMDVWGQGTTVTVS
VL: EIVLTQSPGTLSLSPGERATLSCRASQSVDSNYLGWYQQRPGQAPRLLIYGASSRATGVPDRFSASGSGTDFTLSISRLEPEDFAVYYCQQYGSSFGQGTKVEIKR
Consider B3, for which the HAI activity is greater than 20 µg/mL in assay [15]; 0.4 µg/mL in assay [16]; 2.5 µg/mL in [17]; greater than 20 µg/mL in [18]; greater than 20 µg/mL in assay [19]; 1.3 µg/mL in assay [20]. The HAI activity was greater than 20 µg/mL in assay [21], 0.2 µg/mL in [22] and 0.7 µg/mL in assay [23].

B4: mAb 3N6 (recombinant) (antibody, V domains shown)
VH: QVQLQESGPGLVKPSETLSLTCSVSGGSINYYYWSWIRQPPGKGLECIGYISDTGRTYYNPSLRSRVTISVDTSKNQFSLNLTSMTAADTAVYYCARDPTGSRQKNAFDMWGQGTMVTVS
VL: AIQMTQSPSSLSASVGDRVTITCRASQNIRSYLNWYQQKPGKAPNLLIYGTTSLESGVPSRFSGSGSGTDFTLTISSLQPEDFATYYCQQSYHTPQTFGQGTKVEIKR
Take B4: the OD in assay [24] amounted to 3.07 OD; in assay [25], 2.69 OD; in assay [26], 1.49 OD; in assay [27] it was 0.084 OD; in assay [28], 0.23 OD; in [29], 0.801 OD. The OD in assay [30] was determined as 2.03 OD; in assay [31] it was 1.03 OD; in assay [32], 0.909 OD; in assay [33], 0.57 OD.

The values are drawn from patent US20130289246A1.
